Data set [1] concerns the molecule itself. Kind of data set: SEC-MALS; Malvern P3000 column with Viscotek TDA (refractive index, low angle and right angle light scattering); 100 µL of 1.0 mg/mL; 20 mM Tris-HCl, 150 mM NaCl, pH 8.0; 28°C. For orientation: Size exclusion chromatography separates by hydrodynamic size, large species first.
Data set [2] deals with the molecule itself. Kind of data set: small angle X-ray scattering (SAXS); in-line gel filtration (Superdex 200 5/150), 20 mM Tris.HCl, 150 mM NaCl, pH 8.0, 27°C; initial concentration 2-5 mg/mL; volume and molecular weight by AUTOPOROD, comparison with crystal structures by CRYSOL.

Several values for one entry are separate records, joined by “and”; a condition that tells them apart may be missing. Identical values can stand only once.

B1: Arabidopsis thaliana dihydrodipicolinate reductase 2 (At-DHDPR2) (enzyme, UniProt Q8LB01 54-349, looked up)
chain: LSMGKSETFEEAGNSVAPGNGISIMVNGCSGKMGKAVIKAADSAGVNIVPTSFGSVEEAGQTVEVCGKEILVHGPTEREKVLSSVFEKYPELIVVDYTIPSAVNDNAELYGKVGVPFVMGTTGGDRTRLYKTVEESKIYAVISPQMGKQVVAFLAAMEIMSEQFPGAFAGYSLEVMESHQASKLDASGTAKAVISCFQKLGVSYDMDQIQLIRDPKQQIEVVGVPEEHVSGHAFHLYHLTSPDKTVSFEFQHNVCGRSIYAEGTVDAVLFLAKKIRSKAEKRIYNMIDVLREGNMR
notes: Dihydrodipicolinate reductase 2 (At-DHDPR2), Arabidopsis thaliana, plasmid encoding AT3G59890 from TAIR; primers excluded the chloroplast transit peptide as identified by chloroP; residues may remain after TEV cleavage; also called AT3G59890; source: E. coli BL21(DE3) Star, purified (His-Trap, TEV cleavage, second His-trap)
In general, stoichiometry N refers to a count of units in the complex or per binding partner. On to B1, for which the “stoichiometry N” value in data set [1] is 2 and 4.

B2: Escherichia coli dihydrodipicolinate reductase (Ec-DHDPR) (enzyme, E. coli)
chain: MHDANIRVAIAGAGGRMGRQLIQAALALEGVQLGAALEREGSSLLGSDAGELAGAGKTGVTVQSSLDAVKDDFDVFIDFTRPEGTLNHLAFCRQHGKGMVIGTTGFDEAGKQAIRDAAADIAIVFAANFSVGVNVMLKLLEKAAKVMGDYTDIEIIEAHHRHKVDAPSGTALAMGEAIAHALDKDLKDCAVYSREGHTGERVPGTIGFATVRAGDIVGEHTAMFADIGERLEITHKASSRMTFANGAVRSALWLSGKESGLFDMRDVLDLNNL
notes: Dihydrodipicolinate reductase (DapB), Escherichia coli; construct not described; theoretical mass of the tetramer printed as 114,800 Da
Take B2: in data set [2], the “stoichiometry N” value is 4.

B3: Thermotoga maritima dihydrodipicolinate reductase (Tm-DHDPR) (enzyme, T. maritima)
chain: MKYGIVGYSGRMGQEIQKVFSEKGHELVLKVDVNGVEELDSPDVVIDFSSPEALPKTVDLCKKYRAGLVLGTTALKEEHLQMLRELSKEVPVVQAYNFSIGINVLKRFLSELVKVLEDWDVEIVETHHRFKKDAPSGTAILLESALGKSVPIHSLRVGGVPGDHVVVFGNIGETIEIKHRAISRTVFAIGALKAAEFLVGKDPGMYSFEEVIFGGE
notes: Dihydrodipicolinate reductase (DapB), Thermotoga maritima; construct not described; theoretical mass of the tetramer printed as 99,380 Da
B3: in data set [2], the “stoichiometry N” value was determined as 4.

The values above are taken from article PMC3390394, “Characterisation of the First Enzymes Committed to Lysine Biosynthesis in Arabidopsis thaliana” (PLoS ONE, 2012).
